Data: the domain aggregation screens of Martell et al. (2025)

Assay: soluble fraction after stress (log2 fold change); higher = more stays soluble; pooled small domains, quantitative proteomics
Settings: stress: 75 degC
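Also: 20 min heating vs room temperature control held 20 min.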

Sequence | soluble fraction (log2)
HMDIEFSDELRTFIDEWSKKEGGLVMMLHRIQNEYGFIPRTAAEKLSLISGIPLARIYGVITFYHFFKT | -0.499
HMDIGNKIKELRTEQKMTQSDLAERLGVTKSSISSYENGSRLPSYDILLKIARIFKVSTDILLG | -1.47
HMDIGTRQRIIAAAMELFRQKGMDGMSMRELAERAGVNKGLLHYYFTTKEAIFREVFVHQVEM | -0.084
HMDIIIEEGIDESLSTDDAILDLLGRASDAFSNAQKALLEGDLGSYQKLIEQAERLVKKATELLGENN | -0.377
HMDIMNNILINRIKKILTEQNMSKADLSRLTGISNSSLSEYLNGKYEPKQDKIALIAKALHVSPAWLMGF | -1.22
HMDINNTNFSRDVDNLLQNEEFIKWRIFRTKEWEDYWENFRKENPHMEDALQEAISRFNAVK | 0.264
HMDINVDILPLLKTMTDTLRKVIELDIPFLKDARVQRVNSLDELLLRADITTAEKFRKVFEAYQIEADFGK | -0.976
HMDIPDIGHNVRIEVDGHNGKTTHEGIILHPAAPNHITIKLANGYNASYKLEEIINIEILGELGDDSKI | -0.136
HMDIPITFEQLPAKAQAFVKQYFKIEEIASVWRDDDIHDQDYKVYFNDGSEIEFYANGDWEEV | -0.827
HMDIPTSAEAVRAYLASGFIKGIGEATARMLVDKFGAETLEIIKTEPMKLTKISGIGPKKAKMIHESYLEK | 0.12
HMDIRLMPGTVLTREYQGIEHRVTVAQDGQYEFEGRRYPSLSMIAREITGTRWSGPLFFGVK | -1.09
HMDISEIEKRLLDFLEMPRSRKEIAEHLGIRTISYAIQTYITPLIDKKLVKMTIPESPRSHSQQYVRIN | -1.92
HMDISRMNLSQTERAVLSVLDSQPLHTEEIIASADLRAGAIHSALISLQLKGLIKQLPGNLYVK | -0.78
HMDITKPKISFEPGEMVRVVDGPFNDFSGVVEEVNYEKSKVRVAVLIFGRSTPVELQFNQIEK | -1.37
HMDITTIIADVPGPKTQIKVDIKNTSLHIFGGMNFKKEIDIGDNKEIINIKYINGTLTVKLKT | 0.231
HMDIVGAINKIESMKQDRYLAMHPYSITHSADGYYRTYLPADDGKRKQIKKKSKSDLEKVVIDYWTKRS | -0.242
HMDIVKVYTTARAGETLASVAKRTGVDVARLAQWNDIPLKRAKQKLKTGKALALWVQREHASAYSNAPP | -1.78
HMDIVQLSEKINVMKMEIPAQAIGKTVLEVNFRARFDLNIIAIENGGKLVEVIKPDYVFREGDILFLSGS | -3.76
HMDIYENIDKELSKQGKSRRKLAIAAGIPPSTFQSMMERKRGLSVENLRKIAEVLNLKWYDLL | -0.985
HMDIYKKFIIPATYFGSRLDHVLSELLPELSRSKIQNMIKQNLVMINGNHAAQKQKVVGDEEIIIKDI | -0.483
HMDKAALGQKLRQARLDKGYTQQSLSEKADIGEVYLSEIERGLKMPSMNLFIKLITALDISADYILR | -2.94
HMDKDTFGEFENVKLTEEEYNKLVEKLGENNTKLMIEELSTGIASKGYKYKSHYATILSWSRRRVTKLQER | 0.0858
HMDKEIKILKEKRLDDVQQAIRELSPQKRRVVEMKLYHNSTNQEVADKLAISVNTVKSLYTSALHDLRRIL | -0.953
HMDKESQTMFRLLTGVSGVGPKVGLAILSVLSPDRVVLAISAGDHKAFTAASGVGPKLGQRIVLELKDKVG | -3.07
HMDKEVLYVTVNDKKVKLDGKNHIFIDIFNYIDFDIKKPNGSIVLKLNGKNAGYMDEIKDGDKIEIYWDK | -0.535
HMDKEVMEAVLRILYDDDFNPDQRDAILYFFVQELDQRTISEITGAKIGTVKKRIHDGLKKLRQKLAKEDL | -2.04
HMDKGEQILQQALDKLPPKQRQVFEMRYFDEMPYREIATITETSEGALKASYHHAVKKIQQYISHL | -0.604
HMDKGQRGWINLVSVPTARVIIDGYDTGHETPLYGYEVERGKRKVTLISLDGTYERTYEIRIEPGTTTRVR | -0.779

Sequence | soluble fraction (log2)
HMDKIEVVEVDMSKPYEDMTVTELQNVILDKLASNGPVTNQMKKDVSENIYHDSLVNWAKSF | -0.0122
HMDKIYVYTTRGQVIELPRGSTAIDFAYKIQTDIGNMIIAAIVNDKLVDANYVLHNKDRVKIVTS | -2.57
HMDKLNKELVSRMMDDAAWKELSKDFPWTEQLLEKYMNYVDWKEISRNYNVVWTKSLLEKFKHRLDWHE | -2.32
HMDKMIFFKNKENNDDNQLVKIGALLIHAAKIDEDFSQEEENIIKQTLINFGAGNKNINEIIEKAKKME | 0.0233
HMDKMVAVPNVRGIEASEAEATLIAQGLFVEVEKSDSEDANVAYGEVYAQTPKAGNRVEEGTTITIKVRTE | -0.0615
HMDKNNLHSVLQDVPGIGPKRMKELMRAFGSVEGMKKAGLEELAAVKGMNHKAAEALIQFFR | 0.163
HMDKQGGWLTMAEAAEKLGVTHHVIRRLIKEKILPAEQVMRHAPHQIRIVDLESDAVAEALRHR | -0.356
HMDKVVGSAGDVTSRITANSGEVKIDGQIWQARSYDETIAIEAGEKIEVFDLDGITLIVYPI | -0.833
HMDLAENWKDDADITLAEYNAIRSRYKPGKLHRDTEFMIARDMLIRPETVLAIAHSRFSNVHTHPV | -0.787
HMDLDEELDFLSDADESATKLDLARAYIDMGDKDGARDILAEVLEEGRSEQKREAQALLDSI | 0.249
HMDLDPVEKLHLLSQLYVGQLKGSFVVKEKNQKTTIIGEVRELSHQTLSIRTNEGYRLIEVADILEIRLWE | -0.216
HMDLDYSGIMNVLNQKYHITFYNNKKIQNLMPKLMIIMGYNSIINEIGHSKSLKALINSFEEKLKSYILT | -3.19
HMDLEGLSNKELVTLRGQIQDDLNKWATEVGIIDPKNRPDDYNRALQSLEDAKRQRSAIDAKL | 0.0844
HMDLEIENYDLREILNLFKLDYNFDNVDLKRAQKIALKTHPDKSNLPKEYFMFFMKAFQIVQQIYYYRY | -0.441
HMDLFREERRQAILDWLATAGRVSVAELSASFGVSEVTVRADLQALADRRLVVRTHGGAMMAG | -2.1
HMDLHSQVFESYERKIREVLREGPLTFEEILHAFALKRHETVAQVITYLMDEGKMSDSGDGKLIYSG | -0.86
HMDLIISDIRMPEMRGDDFLEWIKANELFKHIPVIMLSSEDSTTERIRLLEIGAEDYIVKPFNPMELKIR | -0.495
HMDLLIFSPSLGQHVRDLKRVIDRLHQHGIPVRWQKAKLLREEIEYIGWTWKSGGLIDPTNV | -0.672
HMDLMSTNEKLLYTMRYLISKSLDGAITEEEIRRLDRLIIENSQARAYYVEYLQIHTHLRKLMQQNPELK | -2.39
HMDLRIIKTKKAIKTAFLNLLKENKYHNITISAISETALINRKTFYAHYETKDELYADVIEDALRVLSP | 0.114
HMDLRIKEIMSERNVTSAWLAEKVGISKVAVSNIVTGKSSPSLDNLLKIADALNVSITTLIG | -2.6
HMDLRYKVQYNFIDQGMMTKDELLKFSLNQDDVSKIAVFDNDSKQWKEIYAITEISEKLGIS | -0.452
HMDLTIEQTTVLGKRLFSNALNSLGKKQRNIKKDAIESLLKRMNLKDMDQLYESIGIGDKSPLLMAQILL | -0.156
HMDLVIALNSRIRVIREPFFGKLGTVIDLPHKLHKMESGTMTRVAKIKFDDRTEEIIPRTNLEVILS | -3.54
HMDLYEILGVRRGAGGGEIRRAYRRLARRYHPDVNPGDREAQARYALITRAFETLNDPERRRAYDAGVP | -0.817
HMDMAENEEYKVIMGQAQQLAEQFFPADDNTRRIMLGQLKLENYSLYLLTKQILDEATKGQAAAAN | -0.264
HMDNFDVVLTSPGDQKVQVIKAVRSITGLGLKEAKDLVDGAPNTVKEGVKKLDAEEMLKQLTEAGATGEL | 0.35
